# How the values were obtained:
# Experiment in all cases: HPLC product assay, yeast microsomes, Eadie-Hofstee plot
# Assay type in all cases: biochemical, Lupinus albus
# [1] = substrate: O=c1c(O)c(-c2ccc(O)cc2)oc2cc(O)cc(O)c12; conditions: co-substrate DMAPP, 10 mM Mg2+, MOPS pH 7.0, 30°C
# [2] = substrate: O=c1c(O)c(-c2ccc(O)c(O)c2)oc2cc(O)ccc12; conditions: co-substrate DMAPP, 10 mM Mg2+, MOPS pH 7.0, 30°C
# [3] = substrate: O=C1c2c(O)cc(O)cc2O[C@H](c2ccc(O)cc2)[C@H]1O; conditions: co-substrate DMAPP, 10 mM Mg2+, MOPS pH 7.0, 30°C
# [4] = substrate: COc1ccc(-c2oc3cc(O)cc(O)c3c(=O)c2O)cc1; conditions: co-substrate DMAPP, 10 mM Mg2+, MOPS pH 7.0, 30°C
# [5] = substrate: O=c1c(O)c(-c2ccc(O)cc2O)oc2cc(O)cc(O)c12; conditions: co-substrate DMAPP, 10 mM Mg2+, MOPS pH 7.0, 30°C
# [6] = substrate: O=c1c(O)c(-c2ccc(O)c(O)c2)oc2cc(O)cc(O)c12; conditions: co-substrate DMAPP, 10 mM Mg2+, MOPS pH 7.0, 30°C
# [7] = substrate: O=c1c(O)c(-c2ccccc2)oc2cc(O)cc(O)c12; conditions: co-substrate DMAPP, 10 mM Mg2+, MOPS pH 7.0, 30°C
# [8] = substrate: CC(C)=CCOP(=O)(O)OP(=O)(O)O; conditions: co-substrate 400 μM kaempferol, 10 mM Mg2+, MOPS pH 7.0, 30°C
protein,measurement,setting,value
"LaPT2 (Lupinus albus) (protein, open reading frame in pDR196GW, yeast W303A1 microsomal fraction; contig deduced as 407 aa (GFP construct named 88-403); predicted 87-aa transit peptide, no truncation stated for the assay) MGFVLAATSFPKAPSFTSGRSSWNSKEYTKNYYASSHVTTLWHKTGIIQKEPCFMMAWPQNLKLHCKVKGGDKRNYVMNAASGKSNEYETQDLDQRNNWGTLINALHVFFKFIRPTATLSLLLGATLTTLIAVEKLSDISAAYFIGLLQVMVVSSCMQVFMAGLNQLYDVEIDKINKPYLPLVSGELPFKNGVIIVATTFILGHLFPLIIGSGPLFWSFVFSSSLAIAYCADLPLLRWKRHSALTALNYIIDLGGVKPLGYVLHMQTYVFKRPPTFSRPLIFCMAMSSVFAIIIAIFKDITDMEGDEKFGIKSLSLHLGKKPVFWICVSLLQMAYVVAILMGTLSPFLWVKIAMGLGHGILASLVSYYANSVDLKSNPAIQSFYMFIWKLLTVEYFLIPLFR",Km,[1],74.07 ± 3.78 µM
same,Km,[2],10.02 ± 3.19 µM
same,Km,[3],20.08 ± 4.44 µM
same,Km,[4],115.19 ± 34.25 µM
same,Km,[5],20.85 ± 3.79 µM
same,Km,[6],102.81 ± 6.41 µM
same,Km,[7],20.66 ± 2.91 µM
same,Km,[8],66.11 ± 7.54 µM
